Data published in paper PMC8882047.
Read-outs that look alike come from different tables or passages of the source.

B1: human α2-antiplasmin (natural protein)
chain: NQEQVSPLTLLKLGNQEPGGQTALKSPPGVCSRDPTPEQTHRLARAMMAFTADLFSLVAQTSTCPNLILSPLSVALALSHLALGAQNHTLQRLQQVLHAGSGPCLPHLLSRLCQDLGPGAFRLAARMYLQKGFPIKEDFLEQSEQLFGAKPVSLTGKQEDDLANINQWVKEATEGKIQEFLSGLPEDTVLLLLNAIHFQGFWRNKFDPSLTQRDSFHLDEQFTVPVEMMQARTYPLRWFLLEQPEIQVAHFPFKNNMSFVVLVPTHFEWNVSQVLANLSWDTLHPPLVWERPTKVRLPKLYLKHQMDLVATLSQLGLQELFQAPDLRGISEQSLVVSGVQHQSTLELSEVGVEAAAATSIAMSRMSLSSFSVNRPFLFFIFEDTTGLPLFVGSVRNPNPSAPRELKEQQDSPGNKDFLQSLKGFPRGDKLFGPDLKLVPPMEEDYPQFGSPK

Columns and labels:
[1] = target: human plasmin (purified) (human); test: enzyme inhibition titration
[2] = target: human plasmin (purified) (human); test: enzyme inhibition progress curves
[3] = target: human plasmin (purified) (human); test: enzyme inhibition titration; remark: listed apart in the source

Row | Molecule | stoichiometry of inhibition (SI) [1] | kon [2] [M⁻¹ s⁻¹] | stoichiometry of inhibition (SI) [3]
1 | miropin (recombinant, tag-free) (from UniProt G8UQY8 1-432) (natural protein) | 2.3 |  | 
2 | B1 |  | 1.3e+06 | 1.1
